In patent publication US20240116985A1 (published 2024):
Starred links: 1 amine or outer side, 2 acyl side, 3 side chain; linkers in the order of their positions; H or OH if unused. Positions of bridges follow the written chain, without caps; N, C: chain ends. Non-standard residues stand in square brackets, D forms with d. Primed or numbered codes have the meaning given here. B5(29) = 2-amino-2-(pent-4-en-1-yl)hept-6-enoic acid (2,2-bis(4-pentenyl)glycine), stitching residue bearing both staples, C=CCCCC(CCCC=C)(N[*:1])C(=O)[*:2]; B5(17) = 2,2-bis(4-pentenyl)glycine = 2-amino-2-(pent-4-en-1-yl)hept-6-enoic acid, stitching residue, C=CCCCC(CCCC=C)(N[*:1])C(=O)[*:2]; B5(6) = 2-amino-2-(pent-4-en-1-yl)hept-6-enoic acid (bis(4-pentenyl)glycine), stitching residue, C=CCCCC(CCCC=C)(N[*:1])C(=O)[*:2]; Bta = N[C@@H](Cc1csc2ccccc12)C(=O)O; αAllylPro = C=CC[C@@]1(C(=O)O)CCCN1; S8 = C=CCCCCCC[C@](C)(N)C(=O)O; hSer = N[C@@H](CCO)C(=O)O

T1: full-length beta-Catenin (Uniprot ID P35222) (Homo sapiens (Human), UniProt P35222 2-781)
T1 construct: the AlphaScreen assay uses a Histidine (Nickel Chelate) detection kit, so a His tag is likely there; also called B-Catenin; bCat
T1 sequence: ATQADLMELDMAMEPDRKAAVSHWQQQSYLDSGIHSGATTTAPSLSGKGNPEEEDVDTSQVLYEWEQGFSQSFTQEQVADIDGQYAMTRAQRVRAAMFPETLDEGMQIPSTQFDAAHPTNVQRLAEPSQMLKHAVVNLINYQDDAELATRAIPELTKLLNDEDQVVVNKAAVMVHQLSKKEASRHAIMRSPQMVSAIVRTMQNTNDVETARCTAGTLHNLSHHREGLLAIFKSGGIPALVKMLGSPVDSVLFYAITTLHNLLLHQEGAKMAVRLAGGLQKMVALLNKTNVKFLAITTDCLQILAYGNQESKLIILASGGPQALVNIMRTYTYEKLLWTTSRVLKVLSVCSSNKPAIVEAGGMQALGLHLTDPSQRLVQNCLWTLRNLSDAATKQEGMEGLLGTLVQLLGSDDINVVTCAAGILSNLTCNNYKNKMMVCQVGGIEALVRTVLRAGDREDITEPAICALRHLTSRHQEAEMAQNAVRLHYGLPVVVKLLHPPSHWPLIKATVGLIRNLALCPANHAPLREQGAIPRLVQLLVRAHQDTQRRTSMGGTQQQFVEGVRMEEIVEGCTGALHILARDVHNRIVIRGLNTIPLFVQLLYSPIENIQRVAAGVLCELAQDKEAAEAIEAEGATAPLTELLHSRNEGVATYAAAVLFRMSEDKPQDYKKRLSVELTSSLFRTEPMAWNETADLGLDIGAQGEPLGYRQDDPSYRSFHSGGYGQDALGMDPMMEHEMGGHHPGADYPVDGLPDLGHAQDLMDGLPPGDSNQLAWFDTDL

T2: full-length beta-Catenin (Uniprot ID P35222) (Homo sapiens (Human), UniProt P35222 2-781)
T2 construct: No tag is stated for the FP assay; also called bCat; B-Catenin
T2 sequence: T1 sequence

B1: I-172 (peptide)
peptide: XDAXDXAAFVXFWQ
modifications: not fully specified; as printed: Ac-PL3-Asp-Ala-B5-Asp-EtGA-Ala-Ala-Phe-Val-S8-Phe-Trp-Gln-NH2; N-terminal acetyl, C-terminal amide; PL3(1), B5(4), EtGA(6), S8(11); staples PL3-B5 and B5-S8 by olefin metathesis
notes: stapled peptide
B2: I-494 (peptide)
peptide: XDAXDEAAFQXFXQ
modifications: not fully specified; Ac-PL3-Asp-Ala-B5-Asp-Glu-Ala-Ala-Phe-Gln-S8-Phe-BztA-DGIn-NH2 (so in the source); D-Gln at 14); N-terminal acetyl, C-terminal amide; PL3(1)-B5(4) and B5(4)-S8(11) stapled by olefin metathesis; BztA at 13
notes: Stapled (stitched) peptide composition
B3: I-477 (peptide)
peptide: Ac-[αAllylPro]DT[B5(29)]DEAAFQ[S8]F[Bta]Q-NH2
modifications: staple 1-4, 4-11
notes: as for B2
B4: I-496 (peptide)
peptide: Ac-[αAllylPro]DA[B5(17)][hSer]EAAFQ[S8]F[Bta]Q-NH2
modifications: staple 1-4, 4-11; not fully specified; printed as Ac-PL3-Asp-Ala-B5-Hse-Glu-Ala-Ala-Phe-Gln-S8-Phe-BztA-Gln-NH2
notes: Stapled peptide; this is the first eluting HPLC peak (staple isomer composition)
B5: I-491 (peptide)
peptide: Ac-[αAllylPro]DA[B5(17)]DEAAFQ[S8]F[Bta][hSer]-NH2
modifications: staple 1-4, 4-11; also: earlier eluting HPLC peak, E/Z not assigned
notes: Stapled peptide; this is the earlier eluting HPLC peak (staple isomer composition)
B6: I-493 (peptide)
peptide: XDAXDEAAFQXFXS
modifications: not fully specified; Ac-PL3-Asp-Ala-B5-Asp-Glu-Ala-Ala-Phe-Gln-S8-Phe-BztA-DSer-NH2; N-terminal acetyl, C-terminal amide; PL3(1)-B5(4) and B5(4)-S8(11) stapled by olefin metathesis; BztA at 13; D-Ser at 14
notes: as for B2
B7: I-492 (peptide)
peptide: Ac-[αAllylPro]DA[B5(17)]DEAAFQ[S8]F[Bta][hSer]-NH2
modifications: staple 1-4, 4-11; also: later eluting HPLC peak, E/Z not assigned
notes: Stapled peptide; this is the later eluting HPLC peak (staple isomer composition)
B8: I-498 (peptide)
peptide: Ac-[αAllylPro]DA[B5(6)][hSer]EAAFQ[S8]F[Bta]Q-NH2
modifications: staple 1-4, 4-11; not fully specified; printed as Ac-PL3-Asp-Ala-B5-Hse-Glu-Ala-Ala-Phe-Gln-S8-Phe-BztA-Gln-NH2
notes: Stapled peptide; this is the third eluting HPLC peak (staple isomer composition)
B9: I-497 (peptide)
peptide: Ac-[αAllylPro]DA[B5(6)][hSer]EAAFQ[S8]F[Bta]Q-NH2
modifications: staple 1-4, 4-11; not fully specified; printed as Ac-PL3-Asp-Ala-B5-Hse-Glu-Ala-Ala-Phe-Gln-S8-Phe-BztA-Gln-NH2
notes: Stapled peptide; this is the second eluting HPLC peak (staple isomer composition)
B10: I-471 (peptide)
peptide: Ac-[αAllylPro]DI[B5(6)]DEAAFQ[S8]F[Bta]H-NH2
modifications: staple 1-4, 4-11
notes: as for B2
B11: I-495 (peptide)
peptide: XDIXDEAAFQXFXN
modifications: not fully specified; Ac-PL3-Asp-Ile-B5-Asp-Glu-Ala-Ala-Phe-Gln-S8-Phe-BztA-Asn-NH2; N-terminal acetyl, C-terminal amide; PL3(1)-B5(4) and B5(4)-S8(11) stapled by olefin metathesis; BztA at 13
notes: as for B2
B12: I-478 (peptide)
peptide: XDAXDEAAFNXFXH
modifications: not fully specified; Ac-PL3-Asp-Ala-B5-Asp-Glu-Ala-Ala-Phe-Asn-S8-Phe-BztA-1MeH-NH2; N-terminal acetyl, C-terminal amide; PL3(1)-B5(4) and B5(4)-S8(11) stapled by olefin metathesis; BztA at 13; 1MeH at 14
notes: as for B5
B13: I-479 (peptide)
peptide: XDAXDEAAFNXFXH
modifications: not fully specified; Ac-PL3-Asp-Ala-B5-Asp-Glu-Ala-Ala-Phe-Asn-S8-Phe-BztA-1MeH-NH2; N-terminal acetyl, C-terminal amide; PL3(1)-B5(4) and B5(4)-S8(11) stapled by olefin metathesis; BztA at 13; 1MeH at 14
notes: as for B7
B14: I-475 (peptide)
peptide: XDIXDEAAFNXFXQ
modifications: not fully specified; Ac-PL3-Asp-aIle-B5-Asp-Glu-Ala-Ala-Phe-Asn-S8-Phe-BztA-Gln-NH2; N-terminal acetyl, C-terminal amide; PL3(1)-B5(4) and B5(4)-S8(11) stapled by olefin metathesis; aIle at 3; BztA at 13
notes: as for B5
B15: I-476 (peptide)
peptide: XDIXDEAAFNXFXQ
modifications: not fully specified; Ac-PL3-Asp-aIle-B5-Asp-Glu-Ala-Ala-Phe-Asn-S8-Phe-BztA-Gln-NH2; N-terminal acetyl, C-terminal amide; PL3(1)-B5(4) and B5(4)-S8(11) stapled by olefin metathesis; aIle at 3; BztA at 13
notes: as for B7

Target: T1, full-length beta-Catenin (Uniprot ID …)
Experiment: fluorescence polarization competition; full-length beta-catenin with 5FAM-TCF4(10-53) probe as competitor
Experimental: (§1) The plate was incubated protected from light for 60 minutes at 20° C. prior to read. Reads were performed on a CLARIOstar plate reader (BMG Labtech) in duplicate, and data were fitted to a 1:1 binding model with hill slope using an in-house script. All provided concentrations are final concentrations.

Binder	EC50 [nM]
B1	5000

Target: T2, full-length beta-Catenin (Uniprot ID …)
Experiment: as above
Experimental: as §1

Binder	IC50 [nM]
B2	82
B3	119
B4	5000
B5	153
B6	88
B7	53
B8	5000
B9	5000
B10	52
B11	181
B12	71
B13	27
B14	102
B15	48
